One protein from PMC5622040 (Nature Communications, 2017) can be followed below.

This series concerns the molecule itself. The experiment in a line: solid-state NMR of amyloid fibrils.

B1: Syrian hamster PrP23-144 (domain or fragment)
chain: KKRPKPGGWNTGGSRYPGQGSPGGNRYPPQGGGTWGQPHGGGWGQPHGGGWGQPHGGGWGQPHGGGWGQGGGTHNQWNKPSKPKTNMKHMAGAAAAGAVVGGLGGYMLGSAMSRPMMHFGND
On to B1, for which the binding result was “binds”.
